Literature values in patent publication US20230146896A1, “COMPOSITION AND METHOD FOR TREATING ALZHEIMER'S DISEASE” (Eisai R&D Management Co., Ltd., priority 2016, published 2023).

Settings: previous studies, intravenous infusion; typically occurred on the first infusion

B1: BAN2401: humanized IgG1 monoclonal version of mAb158; heavy chain variable SEQ ID NO:1, light chain variable SEQ ID NO:2 (antibody, V domains shown)
VH: EVQLVESGGGLVQPGGSLRLSCSASGFTFSSFGMHWVRQAPGKGLEWVAYISSGSSTIYYGDTVKGRFTISRDNAKNSLFLQMSSLRAEDTAVYYCAREGGYYYGRSYYTMDYWGQGTTVTVSS
VL: DVVMTQSPLSLPVTPGAPASISCRSSQSIVHSNGNTYLEWYLQKPGQSPKLLIYKVSNRFSGVPDRFSGSGSGTDFTLRISRVEAEDVGIYYCFQGSHVPPTFGPGTKLEIK
For B1, which “adverse events (infusion reactions)” value is on record?
The value was “infusion reactions were common AEs”.
